In the RNAGym collection of RNA variant scans (doi:10.7554/elife.80360):

B1: Twister Ribozyme (parent)
chain: AACACUGCCAAUGCCGGUCCCAAGCCCGGAUAAAAGUGGAGGGGGCGG

Variants of: B1
Experiment: self-cleavage, relative activity (ratio to wild type); higher = more cleavage; co-transcriptional

Variant	self-cleavage
AACACUGCCAAUGCCGGGCCCAAGCUCGGAUAAAAGUGGAGGGGGCGG [U18G C26U]	0.0716
AACACUGCCAAUGCCGGAUCCAAGCCCGGAUAAAAGUGGAGGGGGCGG [U18A C19U]	0.266
AACACUGCCAAUGCCGGAGCCAAGCCCGGAUAAAAGUGGAGGGGGCGG [U18A C19G]	0.0926
AACACUGCCAAUGCCGGACCCAAGCCCGGAUAAAAGUGGAGGGUGCGG [U18A G44U]	0.543
AACACUGCCAAUGCCGGCCUCAAGCCCGGAUAAAAGUGGAGGGGGCGG [U18C C20U]	0.375
AACACUGCCAAUGCCGGACUCAAGCCCGGAUAAAAGUGGAGGGGGCGG [U18A C20U]	0.168
AACACUGCCAAUGCCGGACGCAAGCCCGGAUAAAAGUGGAGGGGGCGG [U18A C20G]	0.0551
AACACUGCCAAUGCCGGACCCAAGCCCGGAUAAAAGUGGAGCGGGCGG [U18A G42C]	0.215
AACACUGCCAAUGCCGGACCCAAGCCCGGAUAAAAGUGGAGAGGGCGG [U18A G42A]	0.104
AACACUGCCAAUGCCGGCCCCAAACCCGGAUAAAAGUGGAGGGGGCGG [U18C G24A]	0.0865
AACACUGCCAAUGCCGGACCCAAGCCCGGAUAAAAGUUGAGGGGGCGG [U18A G38U]	0.144
AACACUGCCAAUGCCGGGCCCCAGCCCGGAUAAAAGUGGAGGGGGCGG [U18G A22C]	0.0631
AACACUGCCAAUGCCGGGCCCAAGCCCGGAUUAAAGUGGAGGGGGCGG [U18G A32U]	0.0793
AACACUGCCAAUGCCGGGCCCAAGCCCGGAUCAAAGUGGAGGGGGCGG [U18G A32C]	0.0661
AACACUGCCAAUGCCGGACCCAACCCCGGAUAAAAGUGGAGGGGGCGG [U18A G24C]	0.0951
AACACUGCCAAUGCCGGACCCAAUCCCGGAUAAAAGUGGAGGGGGCGG [U18A G24U]	0.094
AACACUGCCAAUGCCGGACCCAAACCCGGAUAAAAGUGGAGGGGGCGG [U18A G24A]	0.0868
AACACUGCCAAUGCCGGCCCCAAGCCCGGAUUAAAGUGGAGGGGGCGG [U18C A32U]	0.464
AACACUGCCAAUGCCGGCCCCAAGCCCCGAUAAAAGUGGAGGGGGCGG [U18C G28C]	0.124
AACACUGCCAAUGCCGGCCCCAAGCCCAGAUAAAAGUGGAGGGGGCGG [U18C G28A]	0.181
AACACUGCCAAUGCCGGACCCAAGCCCGGAUAAAAUUGGAGGGGGCGG [U18A G36U]	0.172
AACACUGCCAAUGCCGGACCCAAGCCCGGAUAAAACUGGAGGGGGCGG [U18A G36C]	0.0768
AACACUGCCAAUGCCGGACCCAAGCCCGGAUAAAAAUGGAGGGGGCGG [U18A G36A]	0.111
AACACUGCCAAUGCCGGCCCCAAGCCCGGAUAAAAGUGGAGGGGGCAG [U18C G47A]	0.288
AACACUGCCAAUGCCGGCCCCAAGCCCGGAUAAAAGUGGAGGGGGCUG [U18C G47U]	0.288
AACACUGCCAAUGCCGGCCCCAAGCCCGGAUAAAAGUGGAGGGGGCCG [U18C G47C]	0.162
AACACUGCCAAUGCCGGCCCCAAGCCCGGAUAAAAGUGGAGGGGUCGG [U18C G45U]	0.228

Variant	self-cleavage
AACACUGCCAAUGCCGGGCCUAAGCCCGGAUAAAAGUGGAGGGGGCGG [U18G C21U]	0.0712
AACACUGCCAAUGCCGGGGCCAAGCCCGGAUAAAAGUGGAGGGGGCGG [U18G C19G]	0.114
AACACUGCCAAUGCCGGGACCAAGCCCGGAUAAAAGUGGAGGGGGCGG [U18G C19A]	0.0794
AACACUGCCAAUGCCGGACCCAAGCCCGGAAAAAAGUGGAGGGGGCGG [U18A U31A]	0.584
AACACUGCCAAUGCCGGCCCCAAGCCCGGAUAAUAGUGGAGGGGGCGG [U18C A34U]	0.149
AACACUGCCAAUGCCGGCCCCAAGCCCGGAUAAGAGUGGAGGGGGCGG [U18C A34G]	0.142
AACACUGCCAAUGCCGGCCCCAAGCCCGGAUAACAGUGGAGGGGGCGG [U18C A34C]	0.0598
AACACUGCCAAUGCCGGACCCAAGCCCGGAUAAAAGUGAAGGGGGCGG [U18A G39A]	0.104
AACACUGCCAAUGCCGGGCCCAAGCCCGGAUAGAAGUGGAGGGGGCGG [U18G A33G]	0.0866
AACACUGCCAAUGCCGGGCCCAAGCCCGGAUACAAGUGGAGGGGGCGG [U18G A33C]	0.0995
AACACUGCCAAUGCCGGGCCCAAGCCCGGGUAAAAGUGGAGGGGGCGG [U18G A30G]	0.0594
AACACUGCCAAUGCCGGGCCCAAGCCCGGCUAAAAGUGGAGGGGGCGG [U18G A30C]	0.14
AACACUGCCAAUGCCGGCCCCAAGCCCGGAUAAAAGGGGAGGGGGCGG [U18C U37G]	0.155
AACACUGCCAAUGCCGGCCCCAAGCCCGGAUAAAAGCGGAGGGGGCGG [U18C U37C]	0.0756
AACACUGCCAAUGCCGGCCCCAAGCCCGGAUAAAAGUUGAGGGGGCGG [U18C G38U]	0.261
AACACUGCCAAUGCCGGCCCCAAGCACGGAUAAAAGUGGAGGGGGCGG [U18C C26A]	0.0527
AACACUGCCAAUGCCGGCCCCAAGCCCGGAUAAAAGUGGACGGGGCGG [U18C G41C]	0.0753
AACACUGCCAAUGCCGGCCCCAAGCCCGGAUAAAAGUGGAUGGGGCGG [U18C G41U]	0.13
AACACUGCCAAUGCCGGCCCCAAGUCCGGAUAAAAGUGGAGGGGGCGG [U18C C25U]	0.16
AACACUGCCAAUGCCGGCCCCAAGGCCGGAUAAAAGUGGAGGGGGCGG [U18C C25G]	0.104
AACACUGCCAAUGCCGGGCCCAAGCCCGGAUAAAUGUGGAGGGGGCGG [U18G A35U]	0.0933
AACACUGCCAAUGCCGGGCCCAAGCCCGGAUAAAGGUGGAGGGGGCGG [U18G A35G]	0.0984
AACACUGCCAAUGCCGGCCCCAAGCCCGCAUAAAAGUGGAGGGGGCGG [U18C G29C]	0.0613
AACACUGCCAAUGCCGGCCCCAAGCCCGUAUAAAAGUGGAGGGGGCGG [U18C G29U]	0.27
AACACUGCCAAUGCCGGACCCAAGCCCGGAUAAAAGUGGAGGGGGCGA [U18A G48A]	0.279
AACACUGCCAAUGCCGGGCCCACGCCCGGAUAAAAGUGGAGGGGGCGG [U18G A23C]	0.0482
AACACUGCCAAUGCCGGGCCCAGGCCCGGAUAAAAGUGGAGGGGGCGG [U18G A23G]	0.0817
